Molecular target: the molecule itself
Experiment: dynamic light scattering; fresh linker sample after dialysis from 4 M urea into 20 mM sodium phosphate, 0.2 mM EDTA, pH 8.0; 25 μM stock

B1: DNAJB6b (76–186), the 110-residue low complexity linker of DNAJB6b (domain or fragment, UniProt O75190-2 76-186, looked up)
chain: GGGGGSHFDSPFEFGFTFRNPDDVFREFFGGRDPFSFDFFEDPFEDFFGNRRGPRGSRSRGTGSFFSAFSGFPSFGSGFSSFDTGFTSFGSLGHGGLTSFSSTSFGGSGMG
notes: also called JB6 linker; linker peptide
  binding result: binds
